In US6180362A, “Peptides which inhibit ras protein activity, their preparation and use” (Rhone-Poulenc Rorer S.A., priority 1992, dated 2001):

B1: [768-860] PLCγ: fragment of identical length prepared by the same techniques from type γ human phospholipase C (protein, UniProt P19174 768-860, looked up, fragment)
chain: EPDYGALYEGRNPGFYVEANPMPTFKCAVKALFDYKAQREDELTFIKSAIIQNVEKQEGGWWRGDYGGKKQLWFPSNYVEEMVNPVALEPERE
B2: [275-351] GAP: fragment of the protein GAP holding the effector region, about residues 275 to 350; peptide SEQ ID No. 2 (protein)
chain: APPEPVEDRRRVRAILPYTKVPDTDEISFLKGDMFIVHNELEDGWMWVTNLRTDEQGLIVEDLVEEVGREEDPHEGKI
B3: P9: Peptide SEQ ID No. 4, purified as GST fusion protein and separated from GST by thrombin cleavage (protein)
chain: GGGFPPLPPPPYLPPLGAGLGTVDEGDSLDGPEYEEEEVAIPLTAPPTNQWYHGKLDRTIAEERLRQAGKSGSYLIRESDRRPGSFVLSFLSQMNVVNHFRIIAMCGDYYIGGRRFSSLSDLIGYYSHVSCLLKGEKLLYPVAPPEPVEDRRRVRAILPYTKVPDTDEISFLKGDMFIVHNELEDGWMWVTNLRTDEQGLIVEDLVEEVGREEDPHEGKIWFHGKISKQEAYNLLMTVGQVCSFLVRPSDNTPGDYSLYFRTNENIQRFKICPTPNNQFMMGGRYYNSIGDIIDHYRKEQIVEGYYLKEPVPMQDQEQVLNDTVDGKEIYNTIRRKTKDAFYKNIVKKGYLLKKGKGKRWKNLYFILEGSDAQLIYFESEKRATKPKGLIDLSVCSVYVVHDSLFGRPNCFQIVVQHFSEEHYIFYFAGETPEQAEDWMKGLQAFCNLRKSSPGTSNKRLRQVSSLVLHIEEAHKLPVKHFTNPYCNIYLNSVQVAKTHAREGQNPVWSEEFVFDD

Columns and labels:
[1] = tested on: maturation of Xenopus eggs induced by p21 ras Lys12; assay: Maturation of Xenopus eggs (oocytes) induced by ras, % GVBD; type: cell-based, Xenopus laevis; conditions: microinjection into oocyte cytoplasm together with ras p21 protein; GVBD after 18 hours
Experimental: Xenopus laevis frogs were obtained from CNRS (Montpellier, France). The frogs are anaesthetized in ice-water and fragments of the ovaries are removed surgically and transferred to a modified Barth medium (Hirai et al., Dev. Biol. 100 (1984) 214). The stage VI oocytes are recovered by agitating the oocyte aggregates for 2 hours at ambient temperature in the presence of 2 mg/ml of collagenase (Sigma). For analysis of the maturation induced by ras, 40 nl of the protein in modified Barth medium are introduced into the cytoplasm of the oocytes by microinjection, either alone or in the presence of various concentrations of anti-GAP antibodies. For analysis of the maturation induced by hormones, the oocytes are incubated in the presence of insulin (10 μg/ml) and zinc chloride (10 μM) (bovine pancreatic insulin, Sigma) or progesterone (1 μM). The oocytes are kept at 20° C. in modified Barth medium, and the […] germinal vesicle breakdown (GVBD) is determined after incubation for 18 hours by dissection of the oocytes, which have been fixed beforehand in the presence of 5% of trichloroacetic acid. The results are expressed by the % GVBD on groups of oocytes.
E.3.1. The biological activity of the peptides according to the invention was studied by measuring their effect on the maturation of Xenopus eggs induced by p21 ras Lys12, by insulin or by progesterone.
The protocol used is the same as that described in Example E.1.1. above. The activity is measured by microinjection into the cytoplasm of the oocytes of 40 nl of the ras p21 protein in modified Barth medium, either alone or in the presence of various peptides according to the invention in varying concentrations. The results are expressed by the % of GVBD over the groups of oocytes. The results are shown on FIG. 3.

[2] = molecular target: T1, GAP-p21 interaction (Ha-ras p21-GTP and GAP) (Homo sapiens, UniProt P20936); assay: GAP-stimulated GTPase reaction of Ha-ras p21-GTP (GAP-p21 interaction); type: biochemical
T1 construct: GST (glutathione S-transferase) (N); made in house; host or cells: E. coli (crude cytosol for GAP)
T1 sequence (P20936 1-1047): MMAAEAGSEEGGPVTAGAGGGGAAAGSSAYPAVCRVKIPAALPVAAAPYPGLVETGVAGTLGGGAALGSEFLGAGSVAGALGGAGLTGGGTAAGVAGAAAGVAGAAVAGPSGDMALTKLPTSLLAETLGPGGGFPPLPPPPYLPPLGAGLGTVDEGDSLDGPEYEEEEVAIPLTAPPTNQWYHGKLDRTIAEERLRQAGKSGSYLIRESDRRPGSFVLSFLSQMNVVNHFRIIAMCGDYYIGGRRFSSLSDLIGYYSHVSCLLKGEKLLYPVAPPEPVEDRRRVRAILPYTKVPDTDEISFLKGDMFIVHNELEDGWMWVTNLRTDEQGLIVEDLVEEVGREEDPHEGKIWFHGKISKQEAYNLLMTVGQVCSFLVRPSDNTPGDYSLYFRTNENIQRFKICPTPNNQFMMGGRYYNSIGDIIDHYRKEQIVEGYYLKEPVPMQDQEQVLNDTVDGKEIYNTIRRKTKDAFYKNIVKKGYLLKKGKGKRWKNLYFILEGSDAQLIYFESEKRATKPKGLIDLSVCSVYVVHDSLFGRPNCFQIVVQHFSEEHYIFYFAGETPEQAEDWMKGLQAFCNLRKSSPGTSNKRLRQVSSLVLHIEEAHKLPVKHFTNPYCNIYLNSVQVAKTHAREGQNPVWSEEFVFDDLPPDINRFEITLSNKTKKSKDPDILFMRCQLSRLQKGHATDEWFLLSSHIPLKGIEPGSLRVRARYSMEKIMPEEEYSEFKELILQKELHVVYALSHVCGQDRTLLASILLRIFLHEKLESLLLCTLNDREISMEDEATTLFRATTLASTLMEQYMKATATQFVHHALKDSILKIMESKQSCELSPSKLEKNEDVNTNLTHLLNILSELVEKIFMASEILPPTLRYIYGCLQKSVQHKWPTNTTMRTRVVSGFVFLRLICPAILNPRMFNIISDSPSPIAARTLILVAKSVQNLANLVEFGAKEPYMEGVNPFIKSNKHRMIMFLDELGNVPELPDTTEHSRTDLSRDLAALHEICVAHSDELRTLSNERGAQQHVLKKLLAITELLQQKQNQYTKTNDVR
Experimental: E.1.2. Absence of an effect of the Ac200 antibody on the GAP-p21 interaction The interaction between GAP and the complex p21-GTP is determined in accordance with the following protocol. The normal protein Ha-ras p21 (Rey et al., Mol. Cell. Biol. 9 (1989) 3904) is equilibrated with an excess of (γ-^32 P) GTP (3000 Ci/mmol, Dupont, NEN Research Products, Boston, Mass.) in a buffer of Tris-HCl 20 mM (pH 7.5), 100 mM (NH4)2 SO4, 10 mM dithiothreitol, 1 mM MgCl2 and 50 mg/ml of bovine serum albumin for 30 minutes at 30° C. The incubation is stopped by applying the cooled solution to a PD10 column (Pharmacia) equilibrated by a buffer of Tris-HCl 20 mM (pH 7.5), 10 mM dithiothreitol, 10 mM MgCl2 and 1 mM phenylmethylsulphonyl fluoride, to eliminate the free nucleotides. The GTPase reaction is a variant of that described by Cassel and Selinger (Biochim. Biophys. Acta 452 (1976) 538). The reaction is started by addition of 10 μl (15 μg) of cytosol obtained by sonic treatment of strains of E. coli which express GAP (cf. Example E.2.1. below for the production of GAP) to 1 pmol of Ha-ras p21-(g^-32 P) GTP in the buffer Tris-HCl 20 mM (pH 7.5), NaCl 100 mM, dithiothreitol 10 mM, MgCl2 5 mM, GTP 100 μM and BSA 50 μg/ml, to obtain a final volume of 50 μl. […] After centrifugation at 1800 g, the radioactivity is measured in samples of 200 μl of the supernatant.

[3] = tested on: NIH 3T3 cells cotransfected with oncogenic Ha-ras Val12; assay: Formation of foci of transformed cells; type: cell-based; conditions: foci formation test, result in words
Experimental: The activity of P9 was then evaluated in a test for formation of foci of transformed cells. The cancerous cells in fact have the property of forming transformation foci, and in particular fibroblasts NIH 3T3 expressing an oncogenic ras. The cells NIH 3T3 were cultured in DMEM medium (Dulbecco's modified Eagle medium) comprising 10% of foetal calf serum at 37° C. in a humid environment containing 5% of CO2. The plasmids pSV2-GAP and pSV2-P9 were constructed by inserting the nucleotide sequences coding for GAP and for P9 (SEQ ID No. 4) into the vector SV2. The cells NIH 3T3 were cotransfected with an oncogenic ras Ha-ras Va112, the plasmide indicated in the table, and a 10-fold excess of the gene having resistance to neomycin by the technique of transfection with cationic lipids (Schweighoffer et al., Science 256 (1992) 825). The same amount of total DNA is transfected for each dish. 24 hours after transfection, the transfected cells originating from each Petri dish (100 mm) are divided in a ratio of 1 to 10 and cultured in the same medium but in the presence of G418 (Gibco/BRL) in an amount of 0.4 mg/ml of medium. The number of transformation foci obtained per μg of transfected DNA is compatibilized after culture for 14 days. They represent the mean of four independent tests.

Row | Molecule | Inhibition of the transformation activity of the ras protein (maturation of Xenopus eggs, % GVBD) [1] | Relative GAP activity ([2]; None = 100, GTPase reaction 3 minutes at 30° C., 1 pmol Ha-ras p21-GTP, E. coli cytosol expressing GAP) | Effect on the GAP-p21 interaction ([2]; same GTPase test, result in words) | Reduction of the transforming power of an oncogenic ras gene [3]
1 | B1 | does not have the activity of the peptide according to the invention | – | – | –
2 | B2 | capable of inhibiting the transformation activity of the ras protein | 100 | does not modify the functional interaction of GAP-p21 | –
3 | B3 | completely blocks maturation of ovocytes | – | – | capable of very greatly reducing the transforming power of an oncogenic ras gene
